pKd: −log10 of the molar value.
Tests used:
[1] = target: carcinoembryonic antigen (CEA) (UniProt P06731); assay: analytical size exclusion HPLC, radioiodinated bsAb with 10-20× molar excess of CEA
[2] = target: Ac-Lys(DTPA)-Tyr-Lys(DTPA)-Lys(Tscg-Cys)-NH2 (IMP 192); assay: in vivo, GW-39 tumor in nude mice, calculated from biodistribution assuming one peptide per bsAb; 1 h after peptide
[3] = target: Ac-Lys(DTPA)-Tyr-Lys(DTPA)-Lys(Tscg-Cys)-NH2 (IMP 192); assay: in vivo, GW-39 tumor in nude mice, calculated from biodistribution assuming one peptide per bsAb; 3 h after peptide
[4] = target: Ac-Lys(DTPA)-Tyr-Lys(DTPA)-Lys(Tscg-Cys)-NH2 (IMP 192); assay: in vivo, GW-39 tumor in nude mice, calculated from biodistribution assuming one peptide per bsAb; 24 h after peptide
[5] = target: Ac-Lys(DTPA)-Tyr-Lys(DTPA)-Lys(Tscg-Cys)-NH2 (IMP 192); assay: in vivo, GW-39 tumor in nude mice, calculated from biodistribution assuming one peptide per bsAb; 30 min after peptide
[6] = target: mono HSG peptide (peptide containing a single HSG substituent and a thiol); assay: BIAcore, mono HSG peptide coupled by its thiol to a CM-5 chip

Sequence of carcinoembryonic antigen (CEA) (P06731 35-685 limits assumed): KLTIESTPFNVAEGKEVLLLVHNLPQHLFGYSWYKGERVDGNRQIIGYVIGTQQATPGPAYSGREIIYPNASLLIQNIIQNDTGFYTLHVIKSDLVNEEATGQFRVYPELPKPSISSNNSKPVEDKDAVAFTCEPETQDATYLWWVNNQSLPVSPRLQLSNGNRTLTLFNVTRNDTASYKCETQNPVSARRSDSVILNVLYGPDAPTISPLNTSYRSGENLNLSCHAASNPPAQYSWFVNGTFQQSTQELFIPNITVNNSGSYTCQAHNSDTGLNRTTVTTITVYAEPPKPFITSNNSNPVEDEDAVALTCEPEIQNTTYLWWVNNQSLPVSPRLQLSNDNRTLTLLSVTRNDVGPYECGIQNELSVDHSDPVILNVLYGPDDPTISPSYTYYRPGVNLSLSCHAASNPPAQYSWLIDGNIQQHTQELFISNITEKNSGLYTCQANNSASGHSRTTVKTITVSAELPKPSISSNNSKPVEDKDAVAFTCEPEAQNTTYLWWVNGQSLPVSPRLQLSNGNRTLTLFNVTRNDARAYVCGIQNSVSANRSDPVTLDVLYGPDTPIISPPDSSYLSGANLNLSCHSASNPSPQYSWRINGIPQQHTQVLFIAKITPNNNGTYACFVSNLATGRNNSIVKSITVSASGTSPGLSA

percent of bsAb bound [1] [%] | % saturation on hMN-14 × 734 (available DTPA binding sites on the tumor bound bsAb filled with 99m-Tc-IMP-192) [2] [%] | % saturation on hMN-14 × 734 (available DTPA binding sites on the tumor bound bsAb filled with 99m-Tc-IMP-192) [3] [%] | % saturation on hMN-14 × 734 (available DTPA binding sites on the tumor bound bsAb filled with 99m-Tc-IMP-192) [4] [%] | % saturation on hMN-14 × 734 (available DTPA binding sites on the tumor bound bsAb filled with 99m-Tc-IMP-192) [5] [%] | pKd [6] | Substance
90 | 25.8 | 25 | 28 | 25.4 | – | hMN-14 × 734 (Fab × Fab) bsAb (bispecific antibody)
– | – | – | – | – | 8.82 | hMN-14 × m679 F(ab′)2 bsMAb (bispecific antibody)
